Laboratory results published in publication PMC4609183.

Target: R0RBR parkin (residues 141–465, lacking Ubl domain and linker) (human) (UniProt O60260)
Assay: ITC; 50 μM R0RBR, full-length parkin or phosphoparkin titrated with Ub, Ubl or their variants; 25°C; 50 mM HEPES, 50 mM NaCl, 250 μM TCEP pH 7.5 or 50 mM HEPES, 150 mM NaCl, 0.5 mM TCEP pH 8.0; single-site model

Row | Kd [µM] | dH [kJ/mol] | stoichiometry N | Substance
1 | 5.3 | -46 | 0.98 | parkin Ubl domain S65E (domain or fragment)
2 | 5 | -38 | 1.03 | parkin Ubl domain S65D (from UniProt O60260 144-465) (domain or fragment)
3 | 26 | -16 | 1.04 | phosphorylated parkin Ubl domain (domain or fragment)
